The results in this text go back to publication PMC4110039.

Assay [1] addresses HIV-1 JR2 wild type Env (trimer of gp120-gp41 heterodimers) on pseudotyped virus (HIV-1 (isolate JR2)).
The target in assay [2] is HIV-1 JR2 F673L mutant Env (trimer of gp120-gp41 heterodimers) on pseudotyped virus (HIV-1 (isolate JR2)).

Take C34 peptide: the figures for the IC50 of neutralization of pseudotyped virus (single cycle entry assay, TZM-bl cells); C34 acts on the NHR of gp41 in assay [1] and in assay [2] were 1.2 µg/mL and 0.9 µg/mL, respectively.
